# Assay results from the nanobody polyreactivity screen of Harvey et al. (2022).
# Test: yeast display, Sf9 membrane polyspecificity reagent, FACS + sequencing; frameworks hold sequencing errors
# Procedure, shortened: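 Synthetic nanobody libraries on Saccharomyces cerevisiae BJ5465 were galactose-induced for 36–48 hours, stained 1 hour at 4 °C with 10% biotinylated, detergent-solubilized Sf9 membrane reagent and enriched on streptavidin microbeads. FACS then separated cells into low and high (top ~1%) gates by anti-HA (expression) and streptavidin (reagent binding) fluorescence. Genes were colony-PCR amplified, MiSeq 2 × 250 sequenced and CDR-length filtered. A clone's polyreactivity label is that of its gate of origin.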
sequence,measurement,value
QVQLVESVGGLVQAGGSHRLSCAASGLTFEWYTMGWYRQAPGKERELVAVITVSGSSTYYADSVKGRFTISRDNAKNTVYLQMNSLKPEDTAVYYCNADWSFYSYTLYDYWGQGTQVTVSS,polyreactivity (PSR sort gate),low polyreactivity
QVQLVESVGGLVQAGGSLPLSSAASGSIFYRYALGWYRQAPGKERELVAAISDRSGSTYYADSVKGRFTISRDNAKNTVYLQMNSLKPEATAVYYCAASYNYRAAGYGLSRYYYWGQGTQVTVSS,polyreactivity (PSR sort gate),high polyreactivity
QVQLVESVGGLVQAGGSLRFSCAASGFIFNYNALGWYRQAPGTERELVAAISGTGVRTYYADSVKGRFTISRDNAKNTVYLQMNSLKPEDTAVYYCNAYYGYIPVSGYRNDYWGQGTQVTVSS,polyreactivity (PSR sort gate),low polyreactivity
QVQLVESVGGLVQAGGSLRLICAASGRTFSRNAMGWYRQAPGKERELVAGISWRGTSTYYADSVKGRFTISRDNAKNTVFLQMNSLKPEDTAVYYCNRVFEYWSEYDYWGQGTQVTVSS,polyreactivity (PSR sort gate),high polyreactivity
QVQLVESVGGLVQAGGSLRLRCAASGSTFYKNAMGRYRQAPGIERELVAGISRRGGRTYYADSVKGRFTISRDNAKNTVYLQMNSLKPEDTAVFYCNTGHEVDEYDYWGQGTQVTVSS,polyreactivity (PSR sort gate),low polyreactivity
QVQLVESVGGLVQAGGSLRLSCAASGFIFKRYAMGWYRQAPGKERELVAAITGSGGSTYYADSVKGRFTISRDNAKNTVYLQMNSLKPEDTAVYYCARGNGGSLDYWGQGTQVTVSS,polyreactivity (PSR sort gate),high polyreactivity
QVQLVESVGGLVQAGGSLRLSCAASGFIFYQNAMGWYRQAPGKERELVAAISTTGSRTYYADSVKGRFTISRDNAKNTVYLQMNSLKPEDTAVYYCNAPRRVNYDYWGQGTQVTVSS,polyreactivity (PSR sort gate),high polyreactivity
QVQLVESVGGLVQAGGSLRLSCAASGFIIVEYDMGWYRQAPGKEREFVAAINFSGGSTYYADSVKGRFTISRDNAKNTVYLQMNSLKPEDNAVYYCAADVVRYYYTYYYWGQGTHVTVSS,polyreactivity (PSR sort gate),low polyreactivity
QVQLVESVGGLVQAGGSLRLSCAASGFTFGPYDMGWYRQAPGKERELVAVIIGGDSTNYADSVKGRFTISRDNAKNTVYLQMNSLKPEDTAVYYCAADYIDRVGWMDYWGQGTQVTVSS,polyreactivity (PSR sort gate),low polyreactivity
QVQLVESVGGLVQAGGSLRLSCAASGFTFHLYAMGWYRPAPGKERELDAAISQSGDSTYYADSVKGRFTISRDNAKNTVYLQMNSLKPEDTAVYYVNADNDGVVWSYPFDFDYWGQGTQVTVSS,polyreactivity (PSR sort gate),low polyreactivity
QVQLVESVGGLVQAGGSLRLSCAASGFTIGYNFMGWYRQAPGKERELVATISWNGARTYYADSVKGRFTISRDNAKNTVYLQMNSLKPEDTAVYYCAARRYYRGEYDYWGQGTQVTVSS,polyreactivity (PSR sort gate),low polyreactivity
QVQLVESVGGLVQAGGSLRLSCAASGFTIYPYAMGWYRQAPGKERELVAAISSSGGNTYYADSVKGRFTISRDNAKNTVYLQMNSLKPEDTAVYYCNARVYRWAIAPDDDSWGQGTQVTVSS,polyreactivity (PSR sort gate),high polyreactivity
QVQLVESVGGLVQAGGSLRLSCAASGGIFGVYAMGWYRQAPGKERELVAAISNSDTSTSYADSVMGRFTISRDIAKNTVYLQMNSVYPEDTAVYYCNADSPSLSGDYWGQGTQVTVSS,polyreactivity (PSR sort gate),low polyreactivity
QVQLVESVGGLVQAGGSLRLSCAASGGIFWVYAMGWYRQAPGKERELVASISWNGGSTNYADSVKGLFTISRDNAKNTVYLQMNSLKPEDTAVYYCAAEYWTSYADYRYDYWGQGTQVTVSS,polyreactivity (PSR sort gate),low polyreactivity
QVQLVESVGGLVQAGGSLRLSCAASGGTFKTNAMGWYIQAPGKERELVAAITGSGTSTYYADSVKGRFTISRDNAKNTVYLQMNSLKPEDTAVYYCAADKLYQPGIGDDYWGQGNQVTVSS,polyreactivity (PSR sort gate),low polyreactivity
QVQLVESVGGLVQAGGSLRLSCAASGGTFSFNAMGWYRQAPGKERELVAAITQTGDRTYYADSVKGRFTISRDNAKNTVYLQMNSLKPEDTAVYYCAADDIYYQGIYRGSEFDYRGQGTQVTVSS,polyreactivity (PSR sort gate),low polyreactivity
QVQLVESVGGLVQAGGSLRLSCAASGIFVDNAMGWYRQAPGTETELVAPITSSTDSTYYADSVKGRFTISRDNAKNTVALQMNSLKPEDTAVYYCAVARPGGFYFLVHYGYGYWGQGTQVTVSS,polyreactivity (PSR sort gate),low polyreactivity
QVQLVESVGGLVQAGGSLRLSCAASGIIFSCYAMGWYRQAPGKERELVAAISSSGGTTFYADSVKGRFTISRDNAKNTVYLQMNSLKPVDTAVYYCAVVGPPYYTWRVWRPAYDYWGQGTQVTVSS,polyreactivity (PSR sort gate),high polyreactivity
QVQLVESVGGLVQAGGSLRLSCAASGITFLQYAMGWYIQAPGKERELVATINSGGSTNYADSVKGRFTISRDNAKNTVYLQMNSLKPEDTAVYYCAADYGSDYTKGDYWGQGTQVTVSS,polyreactivity (PSR sort gate),low polyreactivity
QVQLVESVGGLVQAGGSLRLSCAASGITFNRYAMGWYRQAPGKERELVAAITGGGSRTFYADSVKGRFTISGDNAKNTVDLQMNSLKPEDTAVYYCAKGLSTGRAYRGYDYWGQGTQVTVSS,polyreactivity (PSR sort gate),high polyreactivity
QVQLVESVGGLVQAGGSLRLSCAASGITFRYYAMGWYRQAPGKERELVADINRGSDTNYADSVKGRFTISRDNAKNTVYLQMNSLKPEDTAVYYCAARSFRSRFRLYIVEFGGYDYWGQGTQVTVSS,polyreactivity (PSR sort gate),low polyreactivity
QVQLVESVGGLVQAGGSLRLSCAASGLIFATYAMGWYRQAPGKESELVADITTTGSTYYADSVKGRFTISRDNAKNTDYLQMNSLKPEATAVYYCAAYCRLLSGYDFDYWGKGTQVTVSS,polyreactivity (PSR sort gate),high polyreactivity
QVQLVESVGGLVQAGGSLRLSCAASGLTSGLNAMGWYRQAPGKERELVATIRTNGGSTYYADSVKGRFTISRDNAKNTVYLQMNSLKPEDTAVYYCAADSVLDRPVLYLWPWYLGDYWGQGTQVTVSS,polyreactivity (PSR sort gate),low polyreactivity
QVQLVESVGGLVQAGGSLRLSCAASGNNFDIYDMGWYRQAPGKERELVAAISSGGSTYYADSVKGRFTISRDTAKNTVYFQMNSLKPEDSAVYYCAESRVGYYRYEYWGQGTQVTVSS,polyreactivity (PSR sort gate),low polyreactivity
QVQLVESVGGLVQAGGSLRLSCAASGNTFSYNAMGWYRQAPGKERELVAAIRWSGGSTYYADSVKGRFTISRDNAKNTVYLQMNSLKPEDTAVYYCNARYASTNYGWFSYYWGQGTQVTVSS,polyreactivity (PSR sort gate),high polyreactivity
QVQLVESVGGLVQAGGSLRLSCAASGRIFAVYAMGWYRQAPGKEREFVAAISYSGGITYYADSVKGRFTISRDNAKNTVYLQMNSLKPEDTAVYYCNAYYYFWGQGTQVTVSS,polyreactivity (PSR sort gate),low polyreactivity
QVQLVESVGGLVQAGGSLRLSCAASGRIFHWYAMGWYRQAPGKERELVAAIRWTGGSTYYADSVKGRFTISRDNAKNTVYLQMNSLKPEDTAVYYCAAKGYTGIFYEMDYWGQGTQVTVSS,polyreactivity (PSR sort gate),low polyreactivity
QVQLVESVGGLVQAGGSLRLSCAASGRIFTSYAMGWYRQAPGKERELVAAIRFNGDSTYYADSVKGSFTISRDNAKNTVYLQMNSLKPEDTAVYYCAASRYRGSFRYTEYYWGQGTQVTVSS,polyreactivity (PSR sort gate),high polyreactivity
QVQLVESVGGLVQAGGSLRLSCAASGRIFVNAMGWYRPAPGKESEVVAAINTRGGSTYYADSVKGRFTISRDNAKNTVYLQLNSLKPEDTAVYYCAARFYTSSRYNYWGQGTQGTVSS,polyreactivity (PSR sort gate),high polyreactivity
QVQLVESVGGLVQAGGSLRLSCAASGRIFWKYTMGWYRQAPGKERELVAAIRSAGGSTYYADSVKGRFTISRDNAKNTVYLQMNSLKPEDTAVYYCAAEPSQRYPLSGYYYWGQGTQVTVSS,polyreactivity (PSR sort gate),low polyreactivity
QVQLVESVGGLVQAGGSLRLSCAASGRIFYKNVMGWYRQAPRKERELVAAISTSTGRTYYADSVNGRFTISRDNAKNTVYLQMNSLKPEDTAVYYCNAVRGLTNGVLYRYDYWGQGTQVTVSS,polyreactivity (PSR sort gate),high polyreactivity
QVQLVESVGGLVQAGGSLRLSCAASGRIFYNYVMGWYRQAPGKERELVAAISSDGGRTYYADSVKGRFTISRDNAKNTVYLQMNSLKPEDTAVYYCAAEWPYGGNGPGHTYEYWGQGTQVTVSS,polyreactivity (PSR sort gate),high polyreactivity
QVQLVESVGGLVQAGGSLRLSCAASGRIIRWYAMGWYRQAPGKERELVAAISGSGGSTYYADSVKGRFTISRDNAKNTVYLQMNSLKPEDTAVYYGAAGYYLRRYYYWGQGTQVTVSS,polyreactivity (PSR sort gate),high polyreactivity
QVQLVESVGGLVQAGGSLRLSCAASGRTFGHYAMGWYRQEPGKERELVAAITSRGGSTNYADSVKGRFTISRDNAKNTVYLQMNSLKPEDTAVYYCAADTLIPDYSATFGYWGEGTQVTVSS,polyreactivity (PSR sort gate),high polyreactivity
QVQLVESVGGLVQAGGSLRLSCAASGRTFRAYAMGWYRQEPGKERELVAAIRWGGGRTYYADSVKGRFTISRDNAKYTVYLQMNSLKPEDTAVYYCAADRTYDYDYWGQGTLVTVSS,polyreactivity (PSR sort gate),high polyreactivity
QVQLVESVGGLVQAGGSLRLSCAASGRTFWWYTMGWYRQAPGKERELVAVISSTGGRTYYADSVKGSFTISRDNAKNTVYLQMNSLKPEDTAVYYCAAEYVSAKWEYGYWGQGTQVTVSS,polyreactivity (PSR sort gate),low polyreactivity
QVQLVESVGGLVQAGGSLRLSCAASGSIFADYAMGWYRQAPGKERELVAAMTGSGGRTYYADSVKGRFTISRDNAKNTVYLHMNSLKPEDTAVYYCAAYQVGWDPYPRYDYWGQGTQVTVSS,polyreactivity (PSR sort gate),low polyreactivity
QVQLVESVGGLVQAGGSLRLSCAASGSIFDYNGMGRYRQAPGKERELVATITLSTARTYYADSVKGRFTISRDNAKNTVYLQMNSLKPEDTAVYYCATRYPKFRRRNYWGQGTQVTVSS,polyreactivity (PSR sort gate),high polyreactivity
QVQLVESVGGLVQAGGSLRLSCAASGSIFFTYTMGWYRQAPGKERELVAAISSGGITNYADSVKGRFTISRDNAKKTVYFQMNSLKPEDTAVYYCAVDGGEFSSYGYWGQGTQVTVSS,polyreactivity (PSR sort gate),low polyreactivity
QVQLVESVGGLVQAGGSLRLSCAASGSIFQPYAMGWYRHAPGKEREFVAAISRSGGITYYADSVKGRFTISRDNAKNTVYLQMNSLKPEDTAVYYCATGRQVVRSYSEGDYCGQGTQVTVSS,polyreactivity (PSR sort gate),low polyreactivity
QVQLVESVGGLVQAGGSLRLSCAASGSIFSYYAMGWYRQAPGKERELVAAITISGSSTYYADSVKGRFTISRDNAKNTVYLQMNSLKPEDTAVYYCNARTIRNWSGQHIYDYWGQGTQVTVSS,polyreactivity (PSR sort gate),high polyreactivity
QVQLVESVGGLVQAGGSLRLSCAASGSIFVKYAMGWYRQAPGKECEMVPAISGSGGSTYYADSVKGRFTISRDNAKNTVYLQMNSLKQEDTAVYYCAADDYFYAGTLPGWWYDYWGQGTQVTVSS,polyreactivity (PSR sort gate),low polyreactivity
QVQLVESVGGLVQAGGSLRLSCAASGSIFVRNAMGWYRQAPGKERELVAGISRSGGSTNYADSVKGRFTISRDNAKNTVYLQMNSLKPEDTAVYYCAASRLVWVGRPWYQVRGDYWGQGTHVTVSS,polyreactivity (PSR sort gate),high polyreactivity
